Measurements reported in patent publication US7144731B2, “SCF antibody compositions and methods of using the same” (Amgen Inc., priority 1989, dated 2006).

Legend:
[1] = test system: 5-FU treated mouse bone marrow cells; experiment: HPP-CFC assay; assay type: cell-based; details: COS-1 supernatant
From the text: There are a variety of biological activities which can be attributed to the natural mammalian rat SCF as well as the recombinant rat SCF protein. One such activity is its effect on early hematopoietic cells. This activity can be measured in a High Proliferative Potential Colony Forming Cell (HPP-CFC) assay [Zsebo, et al., supra (1988)]. To investigate the effects of factors on early hematopoietic cells, the HPP-CFC assay system utilizes mouse bone marrow derived from animals 2 days after 5-fluorouracil (5-FU) treatment. […] The rat SCF is plated in the presence of CSF-1 or IL-6 in semi-solid agar cultures. The agar cultures contain McCoys complete medium (GIBCO), 20% fetal bovine serum, 0.3% agar, and 2×10^5 bone marrow cells/ml. The McCoys complete medium contains the following components: 1× McCoys medium supplemented with 0.1 mM pyruvate, 0.24× essential amino acids, 0.24× non-essential amino acids, 0.027% sodium bicarbonate, 0.24× vitamins, 0.72 mM glutamine, 25 μg/ml L-serine, and 12 μg/ml L-asparagine. The bone marrow cells are obtained from Balb/c mice injected i.v. with 150 mg/kg 5-FU. The femurs are harvested 2 days post 5-FU treatment of the mice and bone marrow is flushed out. The red blood cells are lysed with red blood cell lysing reagent (Becton Dickenson) prior to plating. Test substances are plated with the above mixture in 30 mm dishes. Fourteen days later the colonies (>1 mm in diameter) which contain thousands of cells are scored. This assay was used throughout the purification of natural mammalian cell-derived rat SCF.

[2] = test system: human bone marrow; experiment: Human bone marrow colony assay; assay type: cell-based; details: COS-1 CM, 20 U/ml EPO, 14 days, colonies ≥0.2 mm
Procedure: The cDNA of human SCF corresponding to amino acids 1–162 obtained by PCR reactions outlined in Example 3D, was expressed in COS-1 cells as described for the rat SCF in Example 4. COS-1 supernatants were assayed on human bone marrow as well as in the murine HPP-CFC and MC/9 assays. […] The culture conditions of the assay were as follows: human bone marrow from healthy volunteers was centrifuged over Ficoll-Hypaque gradients (Pharmacia) and cultured in 2.1% methyl cellulose, 30% fetal calf serum, 6×10^−5 M 2-mercaptoethanol, 2 mM glutamine, ISCOVE'S medium (GIBCO), 20 U/ml EPO, and 1×10^5 cells/ml for 14 days in a humidified atmosphere containing 7% O2, 10% CO2, and 83% N2. Only those colonies of 0.2 mm in size or larger are indicated.
Recombinant human SCF was tested in agar colony assays on human bone marrow in combination with other growth factors as described above.

[3] = test system: KG-1; experiment: KG-1 soft agar cloning assay; assay type: cell-based, human; details: COS-1 supernatant, 25 μl assayed; triplicate
Procedure: Another activity of recombinant human SCF is the ability to cause proliferation in soft agar of the human acute myelogenous leukemia (AML) cell line, KG-1 (ATCC CCL 246). COS-1 supernatants from transfected cells were tested in a KG-1 agar cloning assay [Koeffler et al., Science, 200, 1153–1154 (1978)] essentially as described except cells were plated at 3000/ml.

[4] = test system: murine mast cell line, MC/9; experiment: MC/9 ^3H-thymidine uptake assay; assay type: cell-based
Procedure: Another useful biological activity of both naturally-derived and recombinant rat SCF is the ability to cause the proliferation of the […] murine mast cell line, MC/9 (ATCC CRL 8306). MC/9 cells are cultured with a source of […] according to the ATCC CRL 8306 protocol. The medium used in the bioassay is RPMI 1640, 4% fetal bovine serum, 5×10^−5M 2-mercaptoethanol, and 1× glutamine-pen-strep. The MC/9 cells proliferate in response to SCF without the requirement for other growth factors. This proliferation is measured by first culturing the cells for 24 h without growth factors, plating 5000 cells in each well of 96 well plates with test sample for 48 h, pulsing for 4 h with 0.5 uCi ^3H-thymidine (specific activity 20 Ci/mmol), harvesting the solution onto glass fiber filters, and then measuring specifically-bound radioactivity. This assay was used in the purification of mammalian cell derived rat SCF after the ACA 54 gel filtration step, section C2 of this Example. Typically, SCF caused a 4–10 fold increase in CPM over background.

[5] = test system: W/W^v mice; experiment: Bone marrow transplantation model in W/W^v mice; assay type: in vivo, mouse
Procedure: A. Rat SCF in Bone Marrow Transplanation COS-1 cells were transfected with V19.8 SCF^1-162 in a large scale experiment (T175 cm^2 flasks instead of 60 mm dishes) as described in Example 4. Approximately 270 ml of supernatant was harvested. This supernatant was chromatographed on wheat germ agglutinin-agarose and S-Sepharose essentially as described in Example 1. The recombinant SCF was evaluated in a bone marrow transplantation model based on murine W/W^v genetics. The W/W^v mouse has a stem cell defect which among other features results in a macrocytic anemia (large red cells) and allows for the transplantation of bone marrow from normal animals without the need for irradiation of the recipient animals [Russel, et al., Science, 144, 844–846 (1964)). […]
In the following example, each group contained six age matched mice. […] The blood profile of the recipient animals is followed at different times post transplantation and engraftment of the donor marrow is determined by the shift of the peripheral blood cells from recipient to donor phenotype. The conversion from recipient to donor phenotype is detected by monitoring the forward scatter profile (FASCAN, Becton Dickenson) of the red blood cells. […] An independent qualitative indicator of engraftment is the hemoglobin type detected by hemoglobin electrophoresis of the recipient blood [Wong, et al., Mol. and Cell. […]

[6] = test system: normal human bone marrow; experiment: Human CFU-GM assay; assay type: cell-based
[7] = test system: irradiated dogs; experiment: Canine DLA-identical littermate marrow transplantation; assay type: in vivo, dog; details: 920 cGy TBI + marrow
From the text: SCF alone enhances hematopoietic recovery following bone marrow transplantation. A variety of experimental variables have been tested in a canine model of bone marrow transplantation, Schuening et al., 76 636–640. In one set of experiments for the present invention, dogs received either G-CSF or SCF after 920 cGy of total body irradiation and 4×10^8 mononuclear marrow cells per kilogram from a DLA-identical littermate. The hematologic recovery, as measured by day of neutrophil recovery to 500 or 1000/mm^3, is accelerated when either SCF or G-CSF is administered compared to control animals that received no growth factor (Table 21). Recovery was 2–6 days earlier in animals that received SCF than it was in those that received no growth factor. As noted above, combinations of appropriate growth factors with SCF will accelerate and enhance the response to those growth factors following hematopoietic transplantation.

B1: V19.8 rat SCF^1-162: recombinant rat SCF truncated at amino acid 162, supernatant of COS-1 or CHO cells transfected with V19.8 (protein)
chain: MKKTQTWIITCIYLQLLLFNPLVKTQEICRNPVTDNVKDITKLVANLPNDYMITLNYVAGMDVLPSHCWLRDMVTHLSVSLTTLLDKFSNISEGLSNYSIIDKLGKIVDDLVACMEENAPKNVKESLKKPETRNFTPEEFFSIFNRSIDAFKDFMVASDTSD
Colony #/200,000 cells ([1]; 3 μl CM assayed): 8
Colony #/200,000 cells ([1]; 6 μl CM assayed): 30
Colony #/200,000 cells ([1]; 12 μl CM assayed): >50
Colony #/200,000 cells ([1]; 25 μl CM assayed): >50
Colony #/200,000 cells ([1]; 50 μl CM assayed): >50
Colony #/200,000 cells ([1]; 100 μl CM assayed): >50
Colony #/100,000 cells ± SD ([2]; 50 μl assayed): 10
Colony #/100,000 cells ± SD ([2]; 100 μl assayed): 13 ± 1
Colony #/3000 Cells ± SD [3]: 6 ± 1
cpm ([4]; COS-1 supernatant, 3 μl CM assayed): 9,638 cpm
cpm ([4]; COS-1 supernatant, 6 μl CM assayed): 11,482 cpm
cpm ([4]; COS-1 supernatant, 12 μl CM assayed): 11,322 cpm
cpm ([4]; COS-1 supernatant, 25 μl CM assayed): 11,648 cpm
cpm ([4]; stable CHO cell supernatant, volume assayed 1.5): 7,160 cpm
cpm ([4]; stable CHO cell supernatant, volume assayed 3): 14,714 cpm
cpm ([4]; stable CHO cell supernatant, volume assayed 6): 30,657 cpm
cpm ([4]; stable CHO cell supernatant, volume assayed 12): 34,973 cpm
cpm ([4]; stable CHO cell supernatant, volume assayed 25): 33,926 cpm
time to conversion to donor phenotype ([5]; SCF pre-treated group (600 U/ml, 37° C., 20 min)): ≤ 29 days post-transplantation
engraftment of donor marrow vs untreated control ([5]; cells pre-treated with 600 U/ml or recipients ~400 U/day sub-Q for 3 days): engrafted faster
synergistic activity in CFU-GM assay [6]: synergized with human GM-CSF, human IL-3, and human CSF-1
Colony #/100,000 cells (±SEM) ([6]; average of triplicate cultures, SCF = COS-1 supernatant 4 days after transfection): 0

B2: rcG-CSF: recombinant canine G-CSF (protein, UniProt P35834 1-175, looked up)
Granulocyte …: MAPLGPTGPLPQSFLLKCLEQMRKVQADGTALQETLCATHQLCHPEELVLLGHALGIPQPPLSSCSSQALQLMGCLRQLHSGLFLYQGLLQALAGISPELAPTLDTLQLDTTDFAINIWQQMEDLGMAPAVPPTQGTMPAFTSAFQRRAGGVLVASNLQSFLELAYRALRHFAKP
Recovery of ANC > 1000/mm^3 ([7]; 10 days treatment following transplant): Day 8
Recovery of ANC > 500 mm^3 ([7]; 10 days treatment following transplant (rcSCF 200, rcG-CSF 10 μg/kg/day SC)): Day 7
